# Test results published in the DeepSol protein solubility set.
# Assay: soluble on expression in E. coli; label from the status in PepcDB or PDB records
row,Sequence,soluble on expression in E. coli
1,MPGITFKEDANERGRQIEHWPLLKNGSIFVIADDGTRYFQEDAKHRHGHVYTHGSWLIPMNNQHPYLIFDQTQYDAFKQEESQAGQLPYPKFMTKLVSAPTIAQLAAKLGVPANNLQQTVTDFNHYTEVGRDFEFGRDPQTMRQLDDGPYYAIAALEHHHHHH,soluble
2,MPHWLVIDLEATTAEGGWPLEEMEIIEIGATLVAAADARELDHFQRFVRPVRRPLLTHFCRDLTHISQANVDGAAHLNTVWEAFERWLAQHRPRLAGWASWGDYDRRQLEQEWRQHGLTSQLSEVPHVNLKQRFGEVRQLPRPVGLNAALQLAGMSFQGQQHRALEDARNTARLLPLVLPVEHLEHHHHHH,soluble
3,MPICTRLTAQIVKVAVNQPVAIRSSMWAKNNQNIHFMNLHVKKLEKLLLF,not soluble
4,MPIKVKYYGNVVFASDAVCGQAENYATLKAMKEVGNYTISIQTFENAENVYPEEFLAKPVADEHYLTTEDGSVGIKGHYLDIVKELIEKDKVDIIFAGGKLGSLAKLAELTRPYGIPTLEHHHHHH,not soluble
5,MPITPPLNIISPKLYPNEQWNESEALGAITWLWYQSPTHRQVPIVEMMTYILPVLKNGQFALFCKGTQPIGYISWAYFDEVAQAHYLESDRHLRDNSDWNCGDNIWLIQWFAPLGHSHQMRSAVRQLFPSTTVRALYHKGSDKGLRILTFKT,not soluble
6,MPITRTGLPHAVASTSQTQETSQASASQGVLDPGTVPPRRAETFDGLSALPNDLRREIAQRCGPRSLVRLGSVSRQMAEDTRDVRAFLTARPRYDPSLEFGDVHSAESMRVALDEVTHFPYPDDEDRSEQILRGYGRLAARIPSLPQAQRFEAFTAVLNHATRHSGNMAFRVVARLTDDLGCLPEDLRALAFHAILPSLIATRRQALQAAAGAAHVGHIGAVAEADAGGVQGDGEPGPQGAVAPAQGGAAGGIGGALPFNLLASAIRHLPEEAVNLAITEAAALQTGPRLLAEVTLRLHLVGLEPIHRFQQAYAQLAEHLARSGDGAEALTHLVALLNRLPNPGVRQAAFRELTRAVHALDSTESGAAVLRRLAGALPHQPAAVRYLCSLDVLAAAASLFPSEQIPVIAAVRAQAAAIPNQAAELIARCDDAIATASMMLATVSRRYMDM,not soluble
7,MPKETFFNLPKDKRNLIISAAMDEFSKAGYNTASINQICKKSNIPKGSFYQYFTDKLDLYVYIMTLTIEEKIKFFSSAIAEFHTLTFLEQFRLLFLKGLEFAKKHPQYAALADQFSKEDNESVKSAVIKEGDKQAESLFMQMIHNAKTKGEIDSKVDSLALCLLLQSLNSAVNKYMIGKFGGISYEYNQEDINNFVDSLLDIIFSGIQNKAD,not soluble
8,MPKHCSHLIIIPDGKMAAIPFEALIEKRPKHDTSSYAQMGFMIKKYATSYTYTASLYENTHEAAKVKKVLLFAPVDFSASSDLNALPGTLAEVDTLTSLCTNTAQADVYTYTAASKAVLVSDSLSGYSIIHLATHGLVDEEQPELSCIYTSGTSEENDRIYAGDMYNMHLNAALVSLSACQTGLGKIEKGEGMIGLSRALFYAGADNIMVSLWKVSDLSTQVYMQYFYSIYLSENFTTFAEAARISKIKLLNSETFNSPYYWAAFILIGKLEHHHHHH,not soluble
9,MPKIILVSHSKEIASGTKSLLKQMAGDVDIIPIGGLPDGSIGTSFDIIQEVLTKLEDDALCFYDIGSSEMNVDMAIEMYDGNHRVLKVDAPIVEGSFIAAVKLSIGGSIDDALAEIKQSFLEHHHHHH,soluble
10,MPKKVLIFCDPGIDDTMALLLAFFIDEIEIVGIVADYGNVPKKMAVENAHFFNNETKNRNIKIFGGSERPLTGAPPAFFTDVHGKQGLGPIIPKVNVTNGEMENFFEVIPLIEQYKDELIIVSLGRLTSLAILFIMCKQLMKQIKSYYVMGGAFLHPGNVTPISEANFYGDPTAANIVLQSTANMYIYPLNVTQYSIITPEMAEYIEAKGKAPLVKTLFDHYYYGYYKDALPHLKGSPFHDTIPILALLDNSMFTYHKSPIVVMTESYAQGASIGEFRSLGESKPFIDWPSHQIAIDFDYNRFFKHFMSLMTGEQF,not soluble
11,MPKSKSQKNKLRPRDSKGRFTPLAKAKRTVVSRSRSRSRSASRGARQSRSVGRPMSRRNSVRSISTHTAKSPSLVLVISGSPSPRRRRPSTRRSSSRRSVVRSVSRGSKGRRSSSRGSVYGRTGRSRSSKRSRSRSRPRTRSGSRSSSRSRSGSRRSSRRRSRHRSSSKARGRRASTAKKTPAKRRSRSRSQQKVKRSMSRKG,soluble
